Data reported in paper PMC10107491, “Phosphorylation of S11 in PHR1 negatively controls its transcriptional activity”.

Target: PHR1-His (UniProt Q94CL7 1-409)
Assay: EMSA; without SnRK1 (unphosphorylated); 10 mM Tris-HCl pH 8.0, 100 mM NaCl, 10% glycerol, 2 mM DTT, 0.05% NP-40; 0.5 ug protein in 30 ul, 22 C, 30 min; 4.5% acrylamide gel, 0.5x TBE
Details: protein: recombinant; tags: His (pET28b(+)); chain copies: 2; label: 32P 5' end label on sense strand (T4 PNK); blunt

Sequence of PHR1-His (Q94CL7 whole entry): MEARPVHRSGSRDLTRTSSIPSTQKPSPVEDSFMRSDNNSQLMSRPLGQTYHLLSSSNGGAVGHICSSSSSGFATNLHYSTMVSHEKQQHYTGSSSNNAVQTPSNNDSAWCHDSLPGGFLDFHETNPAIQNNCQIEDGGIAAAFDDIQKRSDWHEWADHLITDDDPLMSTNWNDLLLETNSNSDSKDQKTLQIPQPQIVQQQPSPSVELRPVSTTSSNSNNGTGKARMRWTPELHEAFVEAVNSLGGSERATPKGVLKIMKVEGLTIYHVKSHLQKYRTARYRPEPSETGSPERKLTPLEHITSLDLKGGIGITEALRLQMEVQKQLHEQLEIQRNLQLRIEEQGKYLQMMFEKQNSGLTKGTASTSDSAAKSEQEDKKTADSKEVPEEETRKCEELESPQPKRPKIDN

B1: AtIPS1 P1BS probe (dsDNA)
DNA 1: CAATTTTGGTAACGGCATATTCCATCGGATGATCCAAAATTCTCAAAA
DNA 2: TTTTGAGAATTTTGGATCATCCGATGGAATATGCCGTTACCAAAATTG
B1: binds.
